Paper doi:10.1101/447052
Read-outs that look alike come from different tables or passages of the source.

Legend:
[1] = biological target: portal protein gp19 of phage P68 (S. aureus phage P68); experiment: cryo-EM structure
[2] = biological target: tail fiber gp17 of phage P68 (in the virion) (S. aureus phage P68); experiment: cryo-EM structure
[3] = biological target: head fiber gp14 of phage P68 (S. aureus phage P68); experiment: cryo-EM structure
[4] = biological target: tail fiber protein gp17 of phage P68 (protein used for crystallization) (S. aureus phage P68); experiment: crystal structure
[5] = biological target: lower collar protein gp18 of phage P68 (S. aureus phage P68); experiment: cryo-EM structure

“inner core protein gp22 of phage P68 (natural protein)” showed a stoichiometry N ([1]; scale: inner core proteins for each portal protein) of 6.
In the case of “tail fiber gp17 of phage P68 (in the virion) (natural protein)”, the stoichiometry N [2] was 3 subunits.
With “head fiber gp14 of phage P68 (natural protein)” the stoichiometry N [3] was 3 subunits.
Substance “tail fiber protein gp17 of phage P68 (protein used for crystallization) (natural protein)” has a stoichiometry N [4] of 3 subunits.
Work on “portal protein gp19 of phage P68 (natural protein)” yielded a stoichiometry N [1] of 12 subunits.
“lower collar protein gp18 of phage P68 (natural protein)” was tested, and the stoichiometry N [5] was 12 subunits.
